Several values for one entry are separate records, joined by “and”; a condition that tells them apart may be missing. Equal entries are not always repeated.
Legend:
Details in all cases: remark: other sources report otherwise
[1] = molecular target: SARS-CoV-2 full length spike protein (wild-type) (SARS-CoV-2), P0DTC2
[2] = molecular target: SARS-CoV-2 spike protein (SARS-CoV-2), P0DTC2
[3] = molecular target: SARS-CoV-2 spike (S) protein, full length, wild type, expressed on the surface of CHO cells (SARS-CoV-2), P0DTC2
[4] = molecular target: T1, SARS-CoV-2 full length spike protein (wild type) (SARS-CoV-2), P0DTC2
[5] = molecular target: SARS-CoV-2 spike (S) protein, full length, wild type (SARS-CoV-2), P0DTC2
[6] = molecular target: SARS-CoV-2 full length spike protein, wild type, expressed on the surface of CHO cells (SARS-CoV-2), P0DTC2
[7] = molecular target: SARS-CoV-2 full length spike protein (wild-type), conjugated to optically encoded beads (SARS-CoV-2), P0DTC2
[8] = molecular target: SARS-CoV-2 spike (S) protein (SARS-CoV-2), P0DTC2
[9] = molecular target: T1, SARS-CoV-2 full length spike protein …; remark: listed apart in the source
[10] = molecular target: SARS-CoV-2 full length spike protein, wild type, expressed on the surface of transiently transfected CHO cells (SARS-CoV-2), P0DTC2
[11] = molecular target: SARS-CoV-2 full length spike protein (wild type), conjugated to beads (SARS-CoV-2), P0DTC2

B1: antibody 444 (antibody, V domains shown)
VH: QVQLVESGGGLVKPGGSLRLSCAASGFTFSDYYMSWIRQAPGKGLEWVSYISSSGSTIYYADSVKGRFTISRDNAKNSLYLQMNSLRAEDTAVYYCARERKVVVAATRNYYYYYGMDVWGQGTTVTVSS
VL: SYELTQPPSVSVSPGQTARITCSGDALPKQYAYWYQQKPGQAPVLVIYKDSERPSGIPERFSGSSSGTTVTLTISGVQAEDEADYYCQSADSSTWVFGGGTKLTVL
[1]
  Binding to Wild-Type SARS-CoV-2 (Bead Assay): 0.97 and 0.91 and 0.9
[2]
  Kd: 27.2 nM
  koff: 0.000717 s⁻¹
  kon: 26400 M⁻¹ s⁻¹

B2: antibody 337 (antibody, V domains shown)
VH: QVQLVESGGGVVQPGRSLRLSCAASGFTFSSYGMHWVRQAPGKGLEWVAIIWYDGSNKYYADSVKGRFTISRDNSKNTLYLQMNSLRAEDTAVYYCAKDTGGYCSGGSCYPESYFDYWGQGTLVTVSS
VL: SYVLTQPPSVSVAPGKTARITCGGNNIGSKSVHWYQQKPGQAPVLVIYYDSDRPSGIPERFSGSNSGNTATLTINRVEAGDEADYYCQVWDGSSDHLYVFGTGTKVTVL
[3]
  median fluorescence fold over isotype (fold over isotype): 2.08
[4]
  median fluorescence intensity fold over isotype (fold over isotype control): 756

B3: anti-SARS-CoV-2 antibody 485 (antibody, V domains shown)
VH: QVQLQESGPGLVKPSGTLSLTCAVSGASISSSNWWSWVRQPPGKGLEWIGEIYHSGSTNYNPSLKSRVTISVDKSKNQFSLKLSSVTAADTAVYYCARRSYYGSGSYYPFDYWGQGTLVTVSS
VL: QSALTQPASVSGSPGQSITISCTGTSSDVGSYNLVSWYQQHPGKAPKLMIYEGRKRPSGVSNRFSGSKSGNTASLTISGLQAEDEADYYCCSYAGSSTYVFGTGTKVTVL
[5]
  median fluorescence fold over isotype (fold over isotype): 510

B4: antibody 544 (antibody, V domains shown)
VH: QVQLQQWGAGLLKPSETLSLTCAVYGGSFSGYYWSWIRQPPGKGLEWIGEINHSGSTNYNPSLKSRVTISVDTSKNQFSLKLSSVTAADTAVYYCARGFKWFGELLFGAQGTLVTVSS
VL: not shown
[6]
  median fluorescence fold over isotype control (fold over isotype): 2.48
[7]
  median fluorescence fold over isotype (fold over isotype): 639

B5: antibody 416 (antibody, V domains shown)
VH: EVQLVESGGGLVQPGRSLRLSCAASGFTFDDYAMHWVRQAPGKGLEWVSGISWNSGSIGYADSVKGRFTISRDNAKNSLYLQMNSLRAEDTALYYCAKDLAWLSGGMDVWGQGTTVTVSS
VL: not shown
[1]
  Binding to Wild-Type SARS-CoV-2 (Bead Assay): 110

B6: antibody 325 (antibody, V domains shown)
VH: QVQLQESGPGLVKPSQTLSLTCTVSGGSISGGGYYWSWIRQHPGKGLEWIGYIYYSGSTYYNPSLQSRVTISVDTSKNQFSLKLSSVTAADTAVYYCARVGTSSVWYFDYWGQGTLVTVSS
VL: QSALTQPRSVSGSPGQSVTISCTGTSSDVGGYNYVSWYQQHPGKAPKLMIYDVTKRPSGVPDRFSGSKSGNTASLTISGLQAEDEADYYCSSYAGSWVFGGGTKLTVL
[3]
  median fluorescence fold over isotype (fold over isotype): 1.14 and 1.08
[8]
  Kd: 7.36 nM
  koff: 0.000154 s⁻¹
  kon: 20900 M⁻¹ s⁻¹

B7: antibody 315 (antibody, V domains shown)
VH: QVQLVQSGSELKKPGASVKLSCQASGYSFTNHAMNWVRQAPGQGLEWMGWINTNTGNPTYAQGFTGRFVFSLDTSVSTTYLHISSLKAEDTAVYYCARASARPGVATNLDFWGQGTLVVVSS
VL: DIQMTQSPSSLSASVGDRVTITCRASQNIDNYLNWYQQKPGKAPKLLIYAASRLHSGVPSRFSGSGSGTDFTLIISSLQPEDLATYYCQQSYSNPLTFGPGTKVDIR
[9]
  median fluorescence intensity, fold over isotype control (fold over isotype): 8.85
[4]
  median fluorescence intensity fold over isotype (fold over isotype control): 592

B8: antibody 362 (antibody, V domains shown)
VH: QVQLVESGGGVVQPGRSLRLSCAASGFNLSNYAMHWVRQASGKGLEWVSLISYDGSVKYYTDSVKGRFTVSGDNSKNTLFLQMNSLRPDDSALYYCVRGGVSGPNSFDMWGQGTTVTVSS
VL: DVVMTQSPLSLPVTLGQPATISCRSSQSLVYSDGNTYVNWFQQRPGQSPRRLIYQVSIRASGVPDRFSGSGSGTDFALKISRVEAEDVGVYYCMQGTHWPVTFGQGTKVEIK
[3]
  median fluorescence fold over isotype (fold over isotype): 9.45
[4]
  median fluorescence intensity fold over isotype (fold over isotype control): 503

B9: antibody 538 (antibody, V domains shown)
VH: QLQLQESGPGLVKPSETLSLTCTVSGGSISSSSYYWGWIRQPPGKGLEWIGSINYSGSTYYNPSLKSRVTISVDTSKNQFSLKLSSVTAADTAVYYCARYHDYGDDYWGQGTLVTVSS
VL: QLVLTQSPSASASLGASVKLTCTLSSGHSRYAIAWHQQQPEKGPRYLMKLNSDGSHSKGDGIPDRFSGSSSGAERYLTISSLQSEDEADYYCQTWGTGIQVFGGGTKLTVL
[6]
  median fluorescence fold over isotype control (fold over isotype): 1.96
[7]
  median fluorescence fold over isotype (fold over isotype): 607

B10: antibody 389 (antibody, V domains shown)
VH: QVQLVESGGGVVQPGRSLRLSCAASGFTFSSYAMHWVRQAPGKGLEWVAVISYDGSNKYYADSVKGRFTISRDNSKNTLYLQMNSLRAEDTAVYYCASQGRMYVRGVDYGVYWGQGTLVTVSS
VL: NFMLTQPHSVSESPGKTVTISCTGSSGSIASNYVQWYQQRPGSAPTTVIYEDNQRPSGVPDRFSGSIDSSSNSASLTISGLKTEDEADYYCQSYDSSKISHAVFGGGTQLTVL
[10]
  median fluorescence fold over isotype control (fold over isotype): 0.72
[2]
  Kd: < 0.0222 nM
  koff: < 1e-05 s⁻¹
  kon: 450000 M⁻¹ s⁻¹

B11: antibody 396 (antibody, V domains shown)
VH: QVQLQQWGAGLLKPSETLSLTCAVYGGSFSGYYWSWIRQPPGKGLEWIGEIIHSGSTNYNPSLKSRVTISVDTSKNQFSLKLSSVTAADTAVYYSARRTGLLWFREGSYYFDYWGQGTLVTVSS
VL: DIQMTQSPSSLSASVGDRVTITCRASQGIRNDLGWYQQKPGKAPKRLIYAASSLQSGVPSRFSGSGSGTEFTLTISSLQPEDFATYYCLQHNSYPLTFGGGTKVEIK
[11]
  binding signal, bead assay (fold over isotype): 553

B12: antibody 322 (antibody, V domains shown)
VH: EVQLVESGGGLVQPGGSLRLSCAASGFTFSSYWMSWVRQAPGKGLEWVANIKQDGSEKYYVDSVKGRFTISRDNAKNSLYLQMNSLRAEDTAVYYCARDEDVAAALDYWGQGTLVTVSS
VL: SYVLTQPPSVSVAPGKTARITCGGNNIGSKSVHWYQQKPGQAPVLVIYYDSDRPSGIPERFSGSNSGNTATLTISRVEAGDEADYYCQVWDSSSDHPERVFGGGTKLTVL
[3]
  median fluorescence fold over isotype (fold over isotype): 4.94 and 1.65
[8]
  Kd: 21.1 nM
  koff: 0.000401 s⁻¹
  kon: 19000 M⁻¹ s⁻¹

B13: antibody 269 (antibody, V domains shown)
VH: QLQLQESGPGLVKPSETLSLTCTVSGGSISSSSYYWGWIRQPPGKGLEWIGNIYYSGSTYYNPSLKSRVTISVDTSKNQFSLKLSSVTAADTAVYYCAGEELDIVATIYSSRYYYYGMDVWGQGTTVTVSS
VL: QSALTQPASVSGSPGQSITISCTGTSSDVGGYNYVSWYQQHPGKAPKLMIYEVSNRPSGVSNRFSGSKSGNTASLTISGLQAEDEADYYCSSYTSTSTLVFGGGTKLTVL
[9]
  median fluorescence intensity, fold over isotype control (fold over isotype): 13.3 and 9.09
[4]
  binding signal, bead assay (fold over isotype): 480 and 191 and 188
[8]
  Kd: 7.29 nM
  koff: 0.000444 s⁻¹
  kon: 60900 M⁻¹ s⁻¹

B14: antibody 392 (antibody, V domains shown)
VH: QVQLQESGPGLVKPSGTLSLTCAVSGGSISSSNWWSWVRQPPGKGLEWIGEIYHSGSTNYNPSLKSRVTISVDKSKNQFSLKLSSVTAADTAVYYCARGWRATLYGMDVWGQGTTVTVSS
VL: QSALTQPASVSGSPGQSITISCTGTSSDVGSYNLVSWYQQHPGKAPKLMIYEVSKRPSGVSNRFSGSKSGNTASLTISGLQAEDEADYYCCSYAGSSTWVFGGGTKLTVL
[11]
  binding signal, bead assay (fold over isotype): 509

B15: antibody 413 (antibody, V domains shown)
VH: EVQLVESGGGLIQPGGSLRLSCAASGFTVSGNYMNWVRQAPGKGLEWVSVIYSGGSTYYADSVKGRFTISRANSKNTLYLQMNSLRAEDTAVYYCASTSLVRGLIILYYYGMDVWGQGTTVTVSS
VL: QSALTQPASVSGSPGQSITISCTGTSSDVGGYNYVSWYQQHPGKAPKLMIYEVSNRPSGVSNRFSGSKSGNTASLTISGLQAEDEADYYCSSYTSSSTLVFGGGTKLTVL
[10]
  median fluorescence fold over isotype control (fold over isotype): 1.11
[1]
  Binding to Wild-Type SARS-CoV-2 (Bead Assay): 969 and 367 and 416
[2]
  Kd: < 0.0338 nM
  koff: < 1e-05 s⁻¹
  kon: 296000 M⁻¹ s⁻¹

B16: antibody 279 (antibody, V domains shown)
VH: EVQLLESGGGLVQPGGSLRLSCAASGFTFSSYAMSWVRQAPGKGLEWVSTISGSGGNTYYADSVKGRFTISRDNSKNTLYLQMNSLRAEDTAVYYCAKDLFQGLYYGSGEFDYWGQGTLVTVSS
VL: QSALTQPASVSGSPGQSITISCTGTSSDVGAYNYVSWYQQHPGKAPKLMIYGVSNRPSGVSNRFSGSKSGNTASLTISGLQAEDEADYYCSSYTSSSTRVFGTGTKVTVL
[9]
  median fluorescence intensity, fold over isotype control (fold over isotype): 8.59 and 3.84
[4]
  binding signal, bead assay (fold over isotype): 3.09 and 1.36 and 1.11
[8]
  Kd: 52.3 nM
  koff: 0.00195 s⁻¹
  kon: 37300 M⁻¹ s⁻¹

B17: antibody 390 (antibody, V domains shown)
VH: EVQLVESGGGLIQPGGSLRLSCAASGFTVSSNYMSWVRQAPGKGLEWVSIIYSGGSTYYADSVKGRFTISRDNSKNTLYLQMNSLRAEDSAVYSCATTMVRGLIISYYYGMDVWGQGTTVTVSS
VL: QSALTQPASVSGSPGQSITISCTGTSSDVGGYNYVSWYQQHPGKAPKLMIYEVSNRPSGVSNRFSGSKSGNTASLTISGLQAEDEADYYCSSYTSSSTLVFGGGTKLTVL
[10]
  median fluorescence fold over isotype control (fold over isotype): 0.73
[11]
  binding signal, bead assay (fold over isotype): 637 and 341 and 318
[2]
  Kd: 0.153 nM
  koff: 1.97e-05 s⁻¹
  kon: 129000 M⁻¹ s⁻¹

— patent US20210292393A1
